Common to all, as to test: Kinase profiling (radiometric filter-binding)
What all share (type): biochemical

In series [1] the target is MKK1 (Homo sapiens, UniProt Q02750). To be noted: MKK1, 1 µM inhibitor; read-out: Residual activity, %. In short, it runs like this: (§1)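 Residual kinase activity, as a percentage of the inhibitor-free control, was measured at 1 µM final compound by radiometric filter binding. Each human enzyme was run with ATP no higher than its own KM.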
Series [2] has as its target T1, EPH-B3 (Homo sapiens, UniProt P54753).
T1 sequence (P54753 34-998): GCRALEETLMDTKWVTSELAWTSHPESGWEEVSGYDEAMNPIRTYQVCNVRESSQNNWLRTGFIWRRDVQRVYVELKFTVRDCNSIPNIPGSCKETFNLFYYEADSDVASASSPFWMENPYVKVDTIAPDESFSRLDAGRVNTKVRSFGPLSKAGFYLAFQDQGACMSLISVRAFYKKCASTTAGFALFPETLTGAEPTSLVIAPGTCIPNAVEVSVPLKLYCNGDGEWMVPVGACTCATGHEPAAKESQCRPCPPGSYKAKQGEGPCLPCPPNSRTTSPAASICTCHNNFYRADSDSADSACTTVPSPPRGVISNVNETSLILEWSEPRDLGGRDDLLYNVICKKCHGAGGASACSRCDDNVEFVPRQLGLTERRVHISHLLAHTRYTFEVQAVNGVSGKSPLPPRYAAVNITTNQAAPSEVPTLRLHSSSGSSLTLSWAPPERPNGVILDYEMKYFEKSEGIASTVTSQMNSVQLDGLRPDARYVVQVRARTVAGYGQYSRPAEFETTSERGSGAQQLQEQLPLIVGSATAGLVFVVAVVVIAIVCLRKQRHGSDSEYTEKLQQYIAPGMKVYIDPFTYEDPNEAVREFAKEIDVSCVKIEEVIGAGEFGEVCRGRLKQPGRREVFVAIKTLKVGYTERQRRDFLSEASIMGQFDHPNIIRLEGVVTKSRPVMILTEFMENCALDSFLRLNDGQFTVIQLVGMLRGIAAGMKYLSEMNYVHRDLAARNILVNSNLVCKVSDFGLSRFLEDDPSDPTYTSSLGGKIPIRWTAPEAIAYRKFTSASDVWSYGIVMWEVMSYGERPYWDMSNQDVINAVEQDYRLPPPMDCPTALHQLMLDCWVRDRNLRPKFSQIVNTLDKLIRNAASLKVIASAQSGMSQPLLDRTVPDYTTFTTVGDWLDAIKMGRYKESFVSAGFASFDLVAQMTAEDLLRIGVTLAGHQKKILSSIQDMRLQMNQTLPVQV
The settings on record: EPH-B3, 1 µM inhibitor; read-out: Residual activity, %. The method, boiled down:
as §1

Series [3] concerns the target HIPK1 (Homo sapiens, UniProt Q86Z02). To be noted: HIPK1, 1 µM inhibitor; read-out: Residual activity, %. In short, it runs like this: as §1
Series [4] has as its target T2, DYRK3 (Homo sapiens, UniProt O43781).
T2 sequence (O43781 1-588): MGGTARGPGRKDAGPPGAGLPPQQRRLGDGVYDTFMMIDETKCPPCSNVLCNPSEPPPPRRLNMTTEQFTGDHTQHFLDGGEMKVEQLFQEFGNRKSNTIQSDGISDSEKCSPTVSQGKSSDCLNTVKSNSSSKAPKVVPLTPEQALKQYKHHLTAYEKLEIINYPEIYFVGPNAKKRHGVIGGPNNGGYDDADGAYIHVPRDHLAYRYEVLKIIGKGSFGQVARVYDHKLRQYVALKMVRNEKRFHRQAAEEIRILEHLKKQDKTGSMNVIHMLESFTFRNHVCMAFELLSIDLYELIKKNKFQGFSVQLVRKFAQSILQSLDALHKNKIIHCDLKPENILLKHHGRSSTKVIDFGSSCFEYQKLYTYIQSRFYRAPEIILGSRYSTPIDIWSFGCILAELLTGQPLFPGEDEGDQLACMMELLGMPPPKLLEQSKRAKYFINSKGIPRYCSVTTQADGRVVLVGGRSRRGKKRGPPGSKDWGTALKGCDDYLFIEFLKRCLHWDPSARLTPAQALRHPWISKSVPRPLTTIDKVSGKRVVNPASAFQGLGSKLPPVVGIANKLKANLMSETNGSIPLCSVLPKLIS
The settings on record: DYRK3, 1 µM inhibitor; read-out: Residual activity, %. In short, it runs like this:
as §1

The target in series [5] is CHK2 (Homo sapiens, UniProt O96017). To be noted: CHK2, 1 µM inhibitor; read-out: Residual activity, %. In short, it runs like this:
as §1

Series [6] has as its target MLK3 (Homo sapiens, UniProt Q16584). The settings on record: MLK3, 1 µM inhibitor; read-out: Residual activity, %. The method, boiled down: as §1
In series [7] the target is T3, TSSK1 (Homo sapiens, UniProt Q9BXA7).
T3 sequence (Q9BXA7 1-367): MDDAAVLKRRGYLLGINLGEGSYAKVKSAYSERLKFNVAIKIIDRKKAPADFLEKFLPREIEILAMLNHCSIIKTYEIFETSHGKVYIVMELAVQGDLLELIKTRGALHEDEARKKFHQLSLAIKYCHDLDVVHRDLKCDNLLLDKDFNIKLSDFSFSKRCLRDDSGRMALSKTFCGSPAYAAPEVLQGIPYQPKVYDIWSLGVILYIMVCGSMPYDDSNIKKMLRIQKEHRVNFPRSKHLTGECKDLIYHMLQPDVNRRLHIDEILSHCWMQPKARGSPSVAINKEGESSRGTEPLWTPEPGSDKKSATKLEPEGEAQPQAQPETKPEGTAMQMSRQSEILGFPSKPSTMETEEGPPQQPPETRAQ
To be noted: TSSK1, 1 µM inhibitor; read-out: Residual activity, %. In short, it runs like this:
as §1

Series [8] has as its target Src (Homo sapiens, UniProt P12931). The settings on record: 1 µM inhibitor, read-out: Residual activity, %. In short, it runs like this: as §1

The results in this text go back to article PMC8307404, “Crystal Structure-Guided Design of Bisubstrate Inhibitors and Photoluminescent Probes for Protein Kinases of the PIM Family” (Molecules, 2021).

Square brackets hold non-standard residues; d marks the D form. Peptide text beside a SMILES is read from it. * marks the point of attachment. X3 = O=C(CCCCCNCc1nc2c(sc3cc(Br)cnc32)c(=O)[nH]1)*

Sequence of MKK1 (Q02750 whole entry): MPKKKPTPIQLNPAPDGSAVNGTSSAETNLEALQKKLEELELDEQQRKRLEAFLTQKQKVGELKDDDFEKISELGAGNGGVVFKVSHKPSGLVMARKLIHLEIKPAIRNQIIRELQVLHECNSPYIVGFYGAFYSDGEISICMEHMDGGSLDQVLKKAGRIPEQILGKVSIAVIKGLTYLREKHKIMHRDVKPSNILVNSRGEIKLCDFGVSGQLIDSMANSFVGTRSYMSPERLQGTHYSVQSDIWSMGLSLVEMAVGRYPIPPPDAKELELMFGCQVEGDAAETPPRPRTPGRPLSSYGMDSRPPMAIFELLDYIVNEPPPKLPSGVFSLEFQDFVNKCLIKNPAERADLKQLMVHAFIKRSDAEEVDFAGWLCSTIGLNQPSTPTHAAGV
Sequence of Src (P12931 whole entry): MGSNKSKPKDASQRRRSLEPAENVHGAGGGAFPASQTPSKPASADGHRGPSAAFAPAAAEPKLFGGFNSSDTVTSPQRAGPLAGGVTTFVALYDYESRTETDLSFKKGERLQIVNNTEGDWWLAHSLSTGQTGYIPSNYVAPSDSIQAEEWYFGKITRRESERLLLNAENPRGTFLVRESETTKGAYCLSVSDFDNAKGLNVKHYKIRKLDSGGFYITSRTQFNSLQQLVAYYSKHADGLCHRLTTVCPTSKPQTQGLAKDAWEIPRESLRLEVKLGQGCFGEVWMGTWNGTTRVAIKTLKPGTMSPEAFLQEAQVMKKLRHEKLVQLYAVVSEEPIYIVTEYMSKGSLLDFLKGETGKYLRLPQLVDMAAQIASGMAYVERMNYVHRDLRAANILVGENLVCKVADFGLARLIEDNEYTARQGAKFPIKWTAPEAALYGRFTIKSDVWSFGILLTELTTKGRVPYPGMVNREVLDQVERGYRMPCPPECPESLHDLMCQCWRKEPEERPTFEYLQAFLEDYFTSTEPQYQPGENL
Sequence of HIPK1 (Q86Z02 whole entry): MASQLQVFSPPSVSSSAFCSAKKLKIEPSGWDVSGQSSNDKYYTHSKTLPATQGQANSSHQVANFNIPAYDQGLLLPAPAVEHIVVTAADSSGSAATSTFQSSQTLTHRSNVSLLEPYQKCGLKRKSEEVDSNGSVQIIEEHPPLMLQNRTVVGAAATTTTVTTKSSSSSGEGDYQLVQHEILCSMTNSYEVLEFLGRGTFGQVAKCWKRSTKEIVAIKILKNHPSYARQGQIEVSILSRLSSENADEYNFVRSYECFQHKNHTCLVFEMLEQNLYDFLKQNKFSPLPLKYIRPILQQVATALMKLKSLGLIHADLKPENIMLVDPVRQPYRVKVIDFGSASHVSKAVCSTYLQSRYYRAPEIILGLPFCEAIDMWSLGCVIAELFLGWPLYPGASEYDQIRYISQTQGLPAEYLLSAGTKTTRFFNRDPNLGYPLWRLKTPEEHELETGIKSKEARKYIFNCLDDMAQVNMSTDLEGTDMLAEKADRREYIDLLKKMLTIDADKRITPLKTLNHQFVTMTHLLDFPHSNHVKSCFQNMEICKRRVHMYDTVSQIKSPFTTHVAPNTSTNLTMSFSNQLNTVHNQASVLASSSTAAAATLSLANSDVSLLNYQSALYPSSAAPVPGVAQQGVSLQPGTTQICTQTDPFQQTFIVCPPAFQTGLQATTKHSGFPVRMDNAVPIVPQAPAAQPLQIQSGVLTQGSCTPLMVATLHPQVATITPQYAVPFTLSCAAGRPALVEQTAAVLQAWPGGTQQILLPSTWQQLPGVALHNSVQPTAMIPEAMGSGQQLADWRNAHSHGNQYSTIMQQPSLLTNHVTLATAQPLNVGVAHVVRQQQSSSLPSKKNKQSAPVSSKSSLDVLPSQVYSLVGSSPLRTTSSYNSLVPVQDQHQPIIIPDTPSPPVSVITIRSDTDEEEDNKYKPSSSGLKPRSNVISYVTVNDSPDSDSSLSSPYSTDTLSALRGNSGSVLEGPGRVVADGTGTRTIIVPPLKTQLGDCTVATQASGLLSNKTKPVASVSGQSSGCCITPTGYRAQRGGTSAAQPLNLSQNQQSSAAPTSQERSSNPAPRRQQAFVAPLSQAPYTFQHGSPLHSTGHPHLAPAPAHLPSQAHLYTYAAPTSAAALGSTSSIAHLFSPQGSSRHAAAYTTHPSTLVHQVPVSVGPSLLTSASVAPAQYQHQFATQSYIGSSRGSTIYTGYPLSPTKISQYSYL
Sequence of CHK2 (O96017 whole entry): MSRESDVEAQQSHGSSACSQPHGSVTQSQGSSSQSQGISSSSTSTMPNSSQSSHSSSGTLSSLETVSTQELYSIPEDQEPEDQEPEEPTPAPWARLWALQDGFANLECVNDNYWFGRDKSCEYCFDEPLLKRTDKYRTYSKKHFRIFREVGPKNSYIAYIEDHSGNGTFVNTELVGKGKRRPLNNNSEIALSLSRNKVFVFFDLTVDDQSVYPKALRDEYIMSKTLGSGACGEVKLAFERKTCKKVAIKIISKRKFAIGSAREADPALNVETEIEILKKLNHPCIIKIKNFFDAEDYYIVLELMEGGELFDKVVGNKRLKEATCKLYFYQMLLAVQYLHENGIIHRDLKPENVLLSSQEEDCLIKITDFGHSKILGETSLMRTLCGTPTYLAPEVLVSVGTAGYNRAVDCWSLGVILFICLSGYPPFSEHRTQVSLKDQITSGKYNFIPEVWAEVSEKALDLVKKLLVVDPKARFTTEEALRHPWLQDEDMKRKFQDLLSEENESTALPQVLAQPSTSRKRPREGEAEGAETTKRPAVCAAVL
Sequence of MLK3 (Q16584 whole entry): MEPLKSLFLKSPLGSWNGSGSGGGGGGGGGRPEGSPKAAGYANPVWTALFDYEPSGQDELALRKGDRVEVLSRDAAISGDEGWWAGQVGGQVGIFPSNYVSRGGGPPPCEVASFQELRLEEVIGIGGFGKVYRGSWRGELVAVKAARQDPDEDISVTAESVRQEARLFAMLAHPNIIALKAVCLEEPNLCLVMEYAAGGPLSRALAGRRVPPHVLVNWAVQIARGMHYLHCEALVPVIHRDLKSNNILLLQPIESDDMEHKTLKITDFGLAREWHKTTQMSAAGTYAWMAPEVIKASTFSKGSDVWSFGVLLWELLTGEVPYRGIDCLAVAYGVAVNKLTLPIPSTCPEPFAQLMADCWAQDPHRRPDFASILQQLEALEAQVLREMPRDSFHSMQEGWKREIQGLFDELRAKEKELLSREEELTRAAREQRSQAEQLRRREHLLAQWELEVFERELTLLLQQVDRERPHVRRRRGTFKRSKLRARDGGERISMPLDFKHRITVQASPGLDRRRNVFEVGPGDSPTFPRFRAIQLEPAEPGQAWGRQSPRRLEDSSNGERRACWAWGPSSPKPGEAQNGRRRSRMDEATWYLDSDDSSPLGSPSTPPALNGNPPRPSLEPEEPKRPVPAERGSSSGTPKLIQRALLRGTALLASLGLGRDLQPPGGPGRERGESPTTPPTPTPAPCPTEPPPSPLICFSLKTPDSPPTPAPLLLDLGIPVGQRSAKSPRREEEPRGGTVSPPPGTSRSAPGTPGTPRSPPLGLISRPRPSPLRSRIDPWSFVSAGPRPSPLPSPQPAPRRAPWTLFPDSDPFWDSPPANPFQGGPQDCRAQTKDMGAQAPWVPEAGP

As to `N=C(N)NCCC[C@@H](NC(=O)CCCCCNC(=O)Cn1cnc2c(I)c(I)c(I)c(I)c21)C(=O)N[C@H](CCCNC(=N)N)C(=O)N[C@H](CCCNC(=N)N)C(=O)N[C@H](CCCNC(=N)N)C(=O)N[C@H](CCCNC(=N)N)C(=O)N[C@H](CCCNC(=N)N)C(=O)N[C@H](CCCCN)C(N)=O` [ARC-3125, TIBI-CH2-C(=O)-Ahx-(D-Arg)6-D-Lys-NH2], the remaining activity at 1 µM worked out at 32 ± 27% in series [1]; 104 ± 3% in series [2]; 61 ± 1% in series [3]; 22 ± 2% in series [4]; 116 ± 16% in series [5]; 98 ± 2% in series [6]. The values for the remaining activity at 1 µM in series [7] and in series [8] were 63 ± 6% and 153 ± 22%, respectively.

Consider `N=C(N)NCCC[C@@H](NC(=O)CCCCCNCc1nc2c(sc3cc(Br)cnc32)c(=O)[nH]1)C(=O)N[C@H](CCCNC(=N)N)C(=O)N[C@H](CCCNC(=N)N)C(=O)N[C@H](CCCNC(=N)N)C(=O)N[C@H](CCCNC(=N)N)C(=O)N[C@H](CCCNC(=N)N)C(=O)N[C@H](CCCCN)C(N)=O` [ARC-3126, BPTP-Ahx-(D-Arg)6-D-Lys-NH2] (X3-[dR][dR][dR][dR][dR][dR][dK]-NH2), for which the remaining activity at 1 µM in series [1] stood at 100 ± 6%; in series [2], 94 ± 10%; in series [3], 95 ± 15%; in series [4], 82 ± 1%; in series [5], 76 ± 15%; in series [6] it was 117 ± 10%. In addition, the remaining activity at 1 µM in series [7] turned out to be 97 ± 16%; in series [8] it was 103 ± 2%.

As for `N=C(N)NCCC[C@@H](NC(=O)CNC(=O)[C@@H](CCCNC(=N)N)NC(=O)[C@@H](CCCNC(=N)N)NC(=O)CCCCCCCNCc1nc2c(sc3cc(Br)cnc32)c(=O)[nH]1)C(=O)N[C@H](CCCCN)C(N)=O` [Compound 1, BPTP-Aoc-(D-Arg)2-Gly-D-Arg-D-Lys-NH2], the remaining activity at 1 µM amounted to 93 ± 4% in series [1]; 107 ± 26% in series [2]; 111 ± 9% in series [3]; 43 ± 6% in series [4]; 107 ± 9% in series [5]; 105 ± 5% in series [6]. Further, the remaining activity at 1 µM stood at 98 ± 9% in series [7] and 97 ± 3% in series [8].

With `N=C(N)NCCC[C@@H](NC(=O)CNC(=O)[C@@H](CCCNC(=N)N)NC(=O)[C@@H](CCCNC(=N)N)NC(=O)CCCCCCCNCc1nc2c(sc3ccc(Br)cc32)c(=O)[nH]1)C(=O)N[C@H](CCCCN)C(N)=O` [Compound 2, BBTP-Aoc-(D-Arg)2-Gly-D-Arg-D-Lys-NH2], the remaining activity at 1 µM was determined as 94 ± 1% in series [1]; 106 ± 2% in series [2]; 60 ± 12% in series [3]; 34 ± 2% in series [4]; 103 ± 2% in series [5]; 107 ± 1% in series [6]. For the same compound, the remaining activity at 1 µM stood at 108% in series [7] and 110 ± 12% in series [8].

Take `N=C(N)NCCC[C@@H](NC(=O)CNC(=O)[C@@H](CCCNC(=N)N)NC(=O)[C@@H](CCCNC(=N)N)NC(=O)Cn1cc(CNCc2nc3c(sc4ccc(Br)cc43)c(=O)[nH]2)nn1)C(=O)N[C@H](CCCCN)C(N)=O` [Compound 3, BBTP-Amt-(D-Arg)2-Gly-D-Arg-D-Lys-NH2]: the remaining activity at 1 µM in series [1] worked out at 92 ± 6%; in series [2] it was 79 ± 3%; in series [3] it was 60 ± 3%; in series [4] it was 55 ± 4%; in series [5], 52 ± 10%; in series [6], 94 ± 2%. Moreover, the remaining activity at 1 µM in series [7] amounted to 100 ± 10%; in series [8] it was 119 ± 1%.
